Source: patent US20030059763A1, “Immunoglobulin class switch recombination” (priority 2001, published 2003)

Columns and labels:
[1] = tested on: Ramos 2G6 cells stably transfected with XF-1; experiment: Substrate switch recombination (SSR), GFP positive cells by FACS, construct XF-1; type: cell-based, human; details: XF-1 cells; cytokines alone or in combination with CD40 mAb
Excerpt: (§1) The backbone of our switch substrate contained 1.6 Kb of the human Sμ (Zhang and Cheah, 2000, supra) and 1.8 Kb of the human Sγ2 regions (Mills et al, 1995, supra) under the transcriptional control of the CMV (pCMV) and the SV40 promoters (pSV40) respectively. A RSV LTR enhancer/promoter (pRC/RSV-LTR) and a GFP gene under the control of an internal ribosome entry site (IRES) were interposed between Sμ and Sγ2 in the reverse transcriptional orientation (FIG. 1A). Thus, the GFP gene will not be expressed within the gennline configuration of the construct. Detection of switch recombination between the Sμ and Sγ2 in the construct is based on the mechanism of the deletional recombination that excises and deletes the intervening DNA sequences between the Sμ and Sγ2. This excised sequence including the IRES-GFP expression unit forms an extrachromosomal circular DNA that is now under the transcriptional control of the pRSV-LTR (FIG. 1A). The RNA splice donor and acceptor sites permit uniform expression of the GFP from the excised circular DNA (FIG. 1A). Since the GFP gene is expressed only after the switch recombination (recombination or inversion, FIG. 1A) between the Sμ and Sγ2, switch recombination can be monitored in the cultured living cells in “real-time” by fluorescence microscopy. Furthermore, the frequency of switch recombination can be quantitatively measured by flow cytometry.
(§2) To test the potential roles of DNA sequences that may control or regulate the processes involved in switch recombination, the DNA fragments of interest were engineered into the basic switch construct (XF-1) to generate a series of modified switch constructs as diagrammed in the FIG. 1B. All the modified constructs were transfected into Ramos 2G6 cells as stable constructs to establish the switch cell lines. The integrity and copy number of the constructs were determined by Southern Blot analysis and PCR. Only subclones that contain a single copy of the construct were used. To distinguish the substrate switch recombination described here from switch recombination occurring at the intrinsic IgH loci (e.g., CSR), the former is abbreviated as SSR.
(§3) The human B lymphoma cell line Ramos 2G6 (ATCC, Rockville pike, Md.) and its subclones, L cells stably transfected with human CD40L (CD154) provided by D. Rawlings, UCLA), and CHO cells stably transfected with murinc CD40L (Immunex Inc, Seattle, Wash.) were maintained and cultured in complete PRMI 1640 (Zhang et al, 1994, supra). One million cells in 0.2 ml were transfected with 10 μg plasmid DNA by electroporation (200V, 0.975 μF). Genicitin (G418) was added to cultures two days later for clonal selection and the levels increased over four week to concentrations that were previously determined by dosage titration for the different cell lines.
(§4) The expression of GFP in cell lines stably transfected with switch vectors following various stimulated culture conditions was measured by either single- or dual-color flow cytometry (FACS Core laboratory, UCLA). The data were analyzed with FCS express software (De Novo software Inc, Thornhill, Ontario, Canada).

[2] = tested on: Ramos 2G6/XF-5a.1 cells; experiment: Substrate switch recombination (SSR), GFP positive cells by FACS, construct XF-5a; type: cell-based, human; details: for effect on SSR: XF-5a / XF-5a.1 cells, antibodies 1 μg/ml, cytokines 5 ng/ml alone or with CD40 mAb
Excerpt: pXF-5a: A PCR amplified 356 bp fragment containing Iε exon and its 5′ promoter region (pIε) was inserted into Xho I and Xba I sites in pXF-1.
as §1, §2, §3, §4

[3] = tested on: plasmid p77D3.11 (human Sμ and Sε); experiment: In vitro (cell-free) switch recombination assay, white vs blue colonies; type: biochemical; details: added to the recombination reaction; EDTA 10 mM
Description: Nuclear cell extracts from primary human B cells and cell lines were prepared by the Nonidet P-40 (NP-40) lysis method (Dyer and Herzog, BioTechniques 19:192-195 (1995)) with important modifications. Briefly, 10^8 (10^7 for cell lines) purified fresh human tonsillar B lymphocytes (Zhang et al., 1994, supra) were harvested following culture for 3 days with or without 0.1 μg/ml of anti-CD40 monoclonal antibody G28.5 (Zhang et al., 1994, supra) and were lysed with 1 ml of sucrose buffer (0.32 M sucrose, 3 mM CaCl2, 2 mM magnesium acetate, 0.1 mM EDTA, 10 mM Tris-HCl, pH 8.0, 1 mM DTT, 0.5 mM PMSF) containing 0.5% (vol/vol) NL-40 (BRL, Gaithersburg, Mich.). The cells were lysed immediately and the intact nuclei were pelleted by centrifugation at 2400 rpm/5 min at 4° C. The nuclei were washed twice (10^8 B cells/ml) with ice-cold sucrose buffer lacking NP-40. The pelleted nuclei were suspended in 50 μl/10^8 B cells with low-salt buffer (20 mM Hepes, pH 7,6, 25% glycerol, 1.5 mM MgCl2, 20 mM KCl, 0.2 mM EDTA, 0.5 mM DTT, 0.5 mM PMSF) followed by slowly adding 1 vol of high-salt buffer (20 mM Hepes, pH 7.6, 25% glycerol, 1.5 mM MgCl2, 800 mL KCl, 0.2 mM EDTA, 0.5 mM DTT, 0.5 mM PMSF) at 4° C. for 30 min with agitation for nuclear protein extraction. […] The concentration of the nuclear protein was determined by Bradford assay. […]

[4] = molecular target: CD40 on human B lymphoma cell line Ramos 2G6 (stably transfected with switch constructs XF-1 / XF-5a) (human) (UniProt P25942); experiment: cell-based or functional assay
[5] = tested on: Ramos 2G6 cells stably transfected with XF-2b; experiment: Substrate switch recombination (SSR), construct XF-2b; type: cell-based, human; details: XF-2b cells
Excerpt: pXF-2b: The CMV promoter in pXF-2a was deleted by removal of the Ase I and Xho I fragment.
as §2
The human B lymphoma cell line Ramos 2G6 (ATCC, Rockville pike, Md.) and its subclones, L cells stably transfected with human CD40L (CD154) provided by D. Rawlings, UCLA), and CHO cells stably transfected with murinc CD40L (Immunex Inc, Seattle, Wash.) were maintained and cultured in complete PRMI 1640 (Zhang et al, 1994, supra). […] Genicitin (G418) was added to cultures two days later for clonal selection and the levels increased over four week to concentrations that were previously determined by dosage titration for the different cell lines. […]

[6] = tested on: Iε-Cε1′ transcripts in Ramos 2G6/XF-5a.1 cells; experiment: RT-PCR of processed Iε-Cε1′ transcripts from the construct; type: cell-based, human; details: 48 hours, IL-4 1 ng/ml, CD40 mAb 1 μg/ml
Description: The cells were cultured in the presence of IL-4 (1 ng/ml) and CD40 mAb (1 μg/ml) for 48 hours following by RNA preparation and RT-PCR. Total RNA (2 μg) was used for reverse-transcription and cDNA derived from 0.2 μg of RNA was subject to PCR amplification using the primers diagrammed in the FIG. 7B. The ratio of SSR from the cultures (assayed at day 5) is shown in the bottom. […] Diagrams of the formation of the “germ line” transcripts Iε-Cε1′ from the transgenes and the Iε-Cε2 from the endogenous IgH ε locus are shown in the FIG. 7B. The arrows represent the positions of the primers used for PCR.
PCR and […] (RT-PCR) were performed as described previously (Zhang et al, 1994, supra; Zhang and Cheah, 2000, supra). For amplification of the Sμ-Sγ2 products, genomic DNA from the stably transfected Ramos 2G6 cells was amplified with PCR Kit for GC-rich DNA (Clonetech, Palo Alto, Calif.). […]
The role of transcriptional activity vs. SSR was further investigated using Ramos 2G6/XF-5a.1. As the XF-5a construct contains the Iε exon and a Cε1 exon (referred to as Cε1′) that is able to form processed transcripts through RNA splicing, transcriptional activity of the construct can be semi-quantitatively determined by measuring the Iε-Cε1′ transcripts by RT-PCR (FIG. 7). […]

CD40 on human B lymphoma cell line Ramos 2G6 (stably transfected with switch constructs XF-1 / XF-5a) (human), sequence (P25942 21-277): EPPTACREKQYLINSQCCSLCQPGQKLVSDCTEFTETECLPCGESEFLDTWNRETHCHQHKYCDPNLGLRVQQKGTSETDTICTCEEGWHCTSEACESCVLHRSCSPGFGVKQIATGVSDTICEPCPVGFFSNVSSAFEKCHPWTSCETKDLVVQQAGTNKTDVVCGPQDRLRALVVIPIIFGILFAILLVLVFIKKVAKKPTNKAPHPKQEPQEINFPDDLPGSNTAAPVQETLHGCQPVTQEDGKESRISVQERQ

IL-6: cytokine
effect on SSR frequency [1]: did not increase | effect on SSR [2]: did not increase

O=C(O)CN(CCN(CC(=O)O)CC(=O)O)CC(=O)O [EDTA]
effect on recombination activity [3]: almost completely blocked the activity

IL-5: cytokine
effect on SSR frequency [1]: did not increase | effect on SSR [2]: did not increase

Anti-CD40 mAb G28.5 (antibody)
GFP expression level (percent of cells), Ramos 2G6/XF-5a.1, in the presence of IL-4 [4]: > 50% | SSR frequency (percent GFP positive cells), Ramos 2G6/XF-5a.1, without IL-4 [4]: 3.2% | SSR rate (percent GFP positive cells), Ramos 2G6 with construct XF-1 [4]: 1.9%

TGF-β
effect on SSR frequency [1]: did not increase | effect on SSR [2]: did not increase

B1: IL-4: cytokine purchased from R & D system (protein, UniProt P05112 25-153, looked up)
Interleukin-4: HKCDITLQEIIKTLNSLTEQKTLCTELTVTDIFAASKNTTEKETFCRAATVLRQFYSHHEKDTRCLGATAQQFHRHKQLIRFLKRLDRNLWGLAGLNSCPVKEANQSTLENFLERLKTIMREKYSKCSS
effect on SSR frequency [1]: marginal effects | effect on SSR [2]: limited effects | GFP expression, plateau of IL-4 dose-response ([2]; XF-5a cells, in the presence of CD40 mAb (1 μg/ml), plateau at 3 ng/ml IL-4): around 50% | SSR [5]: efficient SSR did not result | change of level of processed Iε-Cε1′ transcripts over pCMV-driven level [6]: minimally increased

B2: IL-10: cytokine (protein, UniProt P22301 19-178, looked up)
Interleukin-10: SPGQGTQSENSCTHFPGNLPNMLRDLRDAFSRVKTFFQMKDQLDNLLLKESLLEDFKGYLGCQALSEMIQFYLEEVMPQAENQDPDIKAHVNSLGENLKTLRLRLRRCHRFLPCENKSKAVEQVKNAFNKLQEKGIYKAMSEFDIFINYIEAYMTMKIRN
effect on SSR frequency [1]: did not increase | effect on SSR [2]: did not increase

B3: IFN-γ: cytokine (protein, UniProt P01579 24-161, looked up)
Interferon gamma: QDPYVKEAENLKKYFNAGHSDVADNGTLFLGILKNWKEESDRKIMQSQIVSFYFKLFKNFKDDQSIQKSVETIKEDMNVKFFNSNKKKRDDFEKLTNYSVTDLNVQRKAIHELIQVMAELSPAAKTGKRKRSQMLFRG
effect on SSR frequency [1]: did not increase | effect on SSR [2]: did not increase
